Reference: patent US20240327815A1

Experiments:
[1] = biological target: Alpha SARS-CoV-2 spike on pseudotyped lentivirus (SARS-CoV-2) (UniProt P0DTC2); experiment: cell-based or functional assay
[2] = biological target: Beta SARS-CoV-2 spike on pseudotyped lentivirus (SARS-CoV-2) (UniProt P0DTC2); experiment: cell-based or functional assay
[3] = biological target: Delta SARS-CoV-2 spike on pseudotyped lentivirus (SARS-CoV-2) (UniProt P0DTC2); experiment: cell-based or functional assay
[4] = biological target: spike of live SARS-CoV-2 Beta variant (SARS-CoV-2) (UniProt P0DTC2); experiment: cell-based or functional assay
[5] = biological target: spike of live SARS-CoV-2 Delta variant (SARS-CoV-2) (UniProt P0DTC2); experiment: cell-based or functional assay
[6] = biological target: B.1.1.7 (Alpha) SARS-CoV-2 spike protein, plate-coated (MSD) (SARS-CoV-2) (UniProt P0DTC2); experiment: MSD competition vs labelled ACE2
[7] = biological target: B.1.351 (Beta) SARS-CoV-2 spike protein, plate-coated (MSD) (SARS-CoV-2) (UniProt P0DTC2); experiment: MSD competition vs labelled ACE2
[8] = biological target: Delta SARS-CoV-2 spike protein, plate-coated (MSD) (SARS-CoV-2) (UniProt P0DTC2); experiment: MSD competition vs labelled ACE2
[9] = biological target: Omicron SARS-CoV-2 spike protein, plate-coated (MSD) (SARS-CoV-2) (UniProt P0DTC2); experiment: MSD competition vs labelled ACE2
[10] = biological target: P.1 (Gamma) SARS-CoV-2 spike protein, plate-coated (MSD) (SARS-CoV-2) (UniProt P0DTC2); experiment: MSD competition vs labelled ACE2

REGEN-COV
Pseudovirus Neutralization (IC50, nM) [1]: 0.06 nM | Pseudovirus Neutralization (IC50, nM) [2]: 4.9 nM | Pseudovirus Neutralization (IC50, nM) [3]: 0.05 nM | Pseudovirus neutralization IC50 [3]: 0.05 nM | Live virus neutralization (MN50, nM) [4]: 0.08 nM | Live virus neutralization (MN50, nM) [5]: 0.05 nM | Live virus neutralization MN50 [5]: 0.05 nM | IC50 [6]: 0.06 nM | IC50 [7]: 0.35 nM | IC50 [8]: 0.05 nM | IC50 [9]: 13.1 nM | IC50 [10]: 0.4 nM
